Measured values published in article doi:10.1101/2023.04.06.535920 (bioRxiv, 2023).

Target: T1, Fc-tagged recombinant mouse FGL1 full length (mouse, UniProt Q71KU9 23-314)
T1 sequence (looked up): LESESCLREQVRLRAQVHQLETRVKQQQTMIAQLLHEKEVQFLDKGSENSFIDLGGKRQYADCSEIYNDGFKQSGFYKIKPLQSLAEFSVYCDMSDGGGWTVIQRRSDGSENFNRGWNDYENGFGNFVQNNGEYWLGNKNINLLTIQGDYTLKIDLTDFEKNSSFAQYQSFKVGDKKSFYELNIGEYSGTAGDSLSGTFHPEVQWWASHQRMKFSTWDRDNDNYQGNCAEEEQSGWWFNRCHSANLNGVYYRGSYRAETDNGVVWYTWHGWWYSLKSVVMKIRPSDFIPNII
Assay: pull-down

binding result: binds
B1: hBMP6 (ligand, human, UniProt P22004 375-513, looked up)
chain: SASSRRRQQSRNRSTQSQDVARVSSASDYNSSELKTACRKHELYVSFQDLGWQDWIIAPKGYAANYCDGECSFPLNAHMNATNHAIVQTLVHLMNPEYVPKPCCAPTKLNAISVLYFDDNSNVILKKYRNMVVRACGCH
